Laboratory results as given in publication doi:10.64898/2025.12.17.694860 (2025).

Target: T1, Trypanosoma brucei enolase (Trypanosoma brucei)
T1 chain: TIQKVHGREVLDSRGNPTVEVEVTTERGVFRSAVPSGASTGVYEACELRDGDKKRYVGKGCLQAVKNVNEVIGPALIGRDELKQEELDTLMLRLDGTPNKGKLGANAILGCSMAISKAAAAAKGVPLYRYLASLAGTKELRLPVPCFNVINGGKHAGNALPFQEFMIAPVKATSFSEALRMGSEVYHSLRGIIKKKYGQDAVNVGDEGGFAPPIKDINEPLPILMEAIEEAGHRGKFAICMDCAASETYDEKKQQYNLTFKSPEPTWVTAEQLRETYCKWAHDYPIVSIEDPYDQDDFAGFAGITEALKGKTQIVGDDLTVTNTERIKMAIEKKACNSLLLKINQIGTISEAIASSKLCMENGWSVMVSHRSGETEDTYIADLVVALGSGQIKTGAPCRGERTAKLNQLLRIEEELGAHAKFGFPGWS
Test: ITC

B1: sdAbR1-10 (VHH)
VHH: QVQLQESGGGLVQPGGSLRLSCAAPGSIFSIFSGNIMGWYRQAPGKQRDFVASISSGGATNYADSVKGRFTISRDNAKNTVYLQMNNLKPEDTAVYYCNTVGGVHTNSWGQGTQVTVSS
Kd: 18.6 nM
